# Target: the molecule itself
# Assay: SEC; Superdex 200 10/300 GL; ligand-active receptor in running buffer 150 mM NaCl, 50 mM sodium phosphate, 10% glycerol, 0.1% DDM, 0.1% CHAPS, 0.02% CHS, pH 8.0; 4°C; HMW oligomer and dimer peak areas (Gaussian fit) relative to the monomer peak
Protein,binding result,dimer level (relative to monomer) [arbitrary units],total oligomer level (relative to monomer) [arbitrary units]
"A2AR-G344ΔC (domain or fragment, human, UniProt P29274 1-344, looked up, adenosine A2A receptor, human, C-terminus truncated at site G344) MPIMGSSVYITVELAIAVLAILGNVLVCWAVWLNSNLQNVTNYFVVSLAAADIAVGVLAIPFAITISTGFCAACHGCLFIACFVLVLTQSSIFSLLAIAIDRYIAIRIPLRYNGLVTGTRAKGIIAICWVLSFAIGLTPMLGWNNCGQPKEGKNHSQGCGEGQVACLFEDVVPMNYMVYFNFFACVLVPLLLMLGVYLRIFLAARRQLKQMESQPLPGERARSTLQKEVHAAKSLAIIVGLFALCWLPLHIINCFTFFCPDCSHAPLWLMYLAIVLSHTNSVVNPFIYAYRIREFRQTFRKIIRSHVLRQQEPFKAAGTSARVLAAHGSDGEQVSLRLNGHPPG",binds,,
"A2AR-N359ΔC with the ERR:AAA mutations (domain or fragment, human, UniProt P29274 1-359, looked up, adenosine A2A receptor, human, C-terminus truncated at site N359, residues 355ERR357 substituted by 355AAA357; also called A2AR-ERR:AAA variant of A2AR-N359ΔC; N359ΔC ERR:AAA) MPIMGSSVYITVELAIAVLAILGNVLVCWAVWLNSNLQNVTNYFVVSLAAADIAVGVLAIPFAITISTGFCAACHGCLFIACFVLVLTQSSIFSLLAIAIDRYIAIRIPLRYNGLVTGTRAKGIIAICWVLSFAIGLTPMLGWNNCGQPKEGKNHSQGCGEGQVACLFEDVVPMNYMVYFNFFACVLVPLLLMLGVYLRIFLAARRQLKQMESQPLPGERARSTLQKEVHAAKSLAIIVGLFALCWLPLHIINCFTFFCPDCSHAPLWLMYLAIVLSHTNSVVNPFIYAYRIREFRQTFRKIIRSHVLRQQEPFKAAGTSARVLAAHGSDGEQVSLRLNGHPPGVWANGSAPHPAAAPN",,0.48,0.85
"A2AR-FL-ERR:AAA (receptor, human, UniProt P29274 1-412, looked up, adenosine A2A receptor, human, full length, residues 355ERR357 substituted by 355AAA357; also called A2AR-ERR:AAA variant of A2AR-FL-WT) MPIMGSSVYITVELAIAVLAILGNVLVCWAVWLNSNLQNVTNYFVVSLAAADIAVGVLAIPFAITISTGFCAACHGCLFIACFVLVLTQSSIFSLLAIAIDRYIAIRIPLRYNGLVTGTRAKGIIAICWVLSFAIGLTPMLGWNNCGQPKEGKNHSQGCGEGQVACLFEDVVPMNYMVYFNFFACVLVPLLLMLGVYLRIFLAARRQLKQMESQPLPGERARSTLQKEVHAAKSLAIIVGLFALCWLPLHIINCFTFFCPDCSHAPLWLMYLAIVLSHTNSVVNPFIYAYRIREFRQTFRKIIRSHVLRQQEPFKAAGTSARVLAAHGSDGEQVSLRLNGHPPGVWANGSAPHPAAAPNGYALGLVSGGSAQESQGNTGLPDVELLSHELKGVCPEPPGLDDPLAQDGAGVS",,0.29,0.94
"A2AR-C394S (receptor, human, UniProt P29274 1-412, looked up, adenosine A2A receptor, human, with C394S; also called A2AR-C394X variant) MPIMGSSVYITVELAIAVLAILGNVLVCWAVWLNSNLQNVTNYFVVSLAAADIAVGVLAIPFAITISTGFCAACHGCLFIACFVLVLTQSSIFSLLAIAIDRYIAIRIPLRYNGLVTGTRAKGIIAICWVLSFAIGLTPMLGWNNCGQPKEGKNHSQGCGEGQVACLFEDVVPMNYMVYFNFFACVLVPLLLMLGVYLRIFLAARRQLKQMESQPLPGERARSTLQKEVHAAKSLAIIVGLFALCWLPLHIINCFTFFCPDCSHAPLWLMYLAIVLSHTNSVVNPFIYAYRIREFRQTFRKIIRSHVLRQQEPFKAAGTSARVLAAHGSDGEQVSLRLNGHPPGVWANGSAPHPERRPNGYALGLVSGGSAQESQGNTGLPDVELLSHELKGVSPEPPGLDDPLAQDGAGVS",binds,,
"A2AR-C394X variant with leucine at 394 (receptor, human, UniProt P29274 1-412, looked up, also called A2AR-C394X (leucine)) MPIMGSSVYITVELAIAVLAILGNVLVCWAVWLNSNLQNVTNYFVVSLAAADIAVGVLAIPFAITISTGFCAACHGCLFIACFVLVLTQSSIFSLLAIAIDRYIAIRIPLRYNGLVTGTRAKGIIAICWVLSFAIGLTPMLGWNNCGQPKEGKNHSQGCGEGQVACLFEDVVPMNYMVYFNFFACVLVPLLLMLGVYLRIFLAARRQLKQMESQPLPGERARSTLQKEVHAAKSLAIIVGLFALCWLPLHIINCFTFFCPDCSHAPLWLMYLAIVLSHTNSVVNPFIYAYRIREFRQTFRKIIRSHVLRQQEPFKAAGTSARVLAAHGSDGEQVSLRLNGHPPGVWANGSAPHPERRPNGYALGLVSGGSAQESQGNTGLPDVELLSHELKGVLPEPPGLDDPLAQDGAGVS",binds,,
"A2AR-C394X variant with methionine at 394 (receptor, human, UniProt P29274 1-412, looked up, also called A2AR-C394X (methionine)) MPIMGSSVYITVELAIAVLAILGNVLVCWAVWLNSNLQNVTNYFVVSLAAADIAVGVLAIPFAITISTGFCAACHGCLFIACFVLVLTQSSIFSLLAIAIDRYIAIRIPLRYNGLVTGTRAKGIIAICWVLSFAIGLTPMLGWNNCGQPKEGKNHSQGCGEGQVACLFEDVVPMNYMVYFNFFACVLVPLLLMLGVYLRIFLAARRQLKQMESQPLPGERARSTLQKEVHAAKSLAIIVGLFALCWLPLHIINCFTFFCPDCSHAPLWLMYLAIVLSHTNSVVNPFIYAYRIREFRQTFRKIIRSHVLRQQEPFKAAGTSARVLAAHGSDGEQVSLRLNGHPPGVWANGSAPHPERRPNGYALGLVSGGSAQESQGNTGLPDVELLSHELKGVMPEPPGLDDPLAQDGAGVS",binds,,
"A2AR-C394X variant with valine at 394 (receptor, human, UniProt P29274 1-412, looked up, also called A2AR-C394X (valine)) MPIMGSSVYITVELAIAVLAILGNVLVCWAVWLNSNLQNVTNYFVVSLAAADIAVGVLAIPFAITISTGFCAACHGCLFIACFVLVLTQSSIFSLLAIAIDRYIAIRIPLRYNGLVTGTRAKGIIAICWVLSFAIGLTPMLGWNNCGQPKEGKNHSQGCGEGQVACLFEDVVPMNYMVYFNFFACVLVPLLLMLGVYLRIFLAARRQLKQMESQPLPGERARSTLQKEVHAAKSLAIIVGLFALCWLPLHIINCFTFFCPDCSHAPLWLMYLAIVLSHTNSVVNPFIYAYRIREFRQTFRKIIRSHVLRQQEPFKAAGTSARVLAAHGSDGEQVSLRLNGHPPGVWANGSAPHPERRPNGYALGLVSGGSAQESQGNTGLPDVELLSHELKGVVPEPPGLDDPLAQDGAGVS",binds,,
"A2AR-C394X variant with alanine at 394 (receptor, human, UniProt P29274 1-412, looked up, also called A2AR-C394X (alanine)) MPIMGSSVYITVELAIAVLAILGNVLVCWAVWLNSNLQNVTNYFVVSLAAADIAVGVLAIPFAITISTGFCAACHGCLFIACFVLVLTQSSIFSLLAIAIDRYIAIRIPLRYNGLVTGTRAKGIIAICWVLSFAIGLTPMLGWNNCGQPKEGKNHSQGCGEGQVACLFEDVVPMNYMVYFNFFACVLVPLLLMLGVYLRIFLAARRQLKQMESQPLPGERARSTLQKEVHAAKSLAIIVGLFALCWLPLHIINCFTFFCPDCSHAPLWLMYLAIVLSHTNSVVNPFIYAYRIREFRQTFRKIIRSHVLRQQEPFKAAGTSARVLAAHGSDGEQVSLRLNGHPPGVWANGSAPHPERRPNGYALGLVSGGSAQESQGNTGLPDVELLSHELKGVAPEPPGLDDPLAQDGAGVS",binds,,
"A2AR-P395ΔC (domain or fragment, human, UniProt P29274 1-395, looked up, adenosine A2A receptor, human, C-terminus truncated at site P395) MPIMGSSVYITVELAIAVLAILGNVLVCWAVWLNSNLQNVTNYFVVSLAAADIAVGVLAIPFAITISTGFCAACHGCLFIACFVLVLTQSSIFSLLAIAIDRYIAIRIPLRYNGLVTGTRAKGIIAICWVLSFAIGLTPMLGWNNCGQPKEGKNHSQGCGEGQVACLFEDVVPMNYMVYFNFFACVLVPLLLMLGVYLRIFLAARRQLKQMESQPLPGERARSTLQKEVHAAKSLAIIVGLFALCWLPLHIINCFTFFCPDCSHAPLWLMYLAIVLSHTNSVVNPFIYAYRIREFRQTFRKIIRSHVLRQQEPFKAAGTSARVLAAHGSDGEQVSLRLNGHPPGVWANGSAPHPERRPNGYALGLVSGGSAQESQGNTGLPDVELLSHELKGVCP",binds,,
"A2AR-P354ΔC (domain or fragment, human, UniProt P29274 1-354, looked up, adenosine A2A receptor, human, C-terminus truncated at site P354) MPIMGSSVYITVELAIAVLAILGNVLVCWAVWLNSNLQNVTNYFVVSLAAADIAVGVLAIPFAITISTGFCAACHGCLFIACFVLVLTQSSIFSLLAIAIDRYIAIRIPLRYNGLVTGTRAKGIIAICWVLSFAIGLTPMLGWNNCGQPKEGKNHSQGCGEGQVACLFEDVVPMNYMVYFNFFACVLVPLLLMLGVYLRIFLAARRQLKQMESQPLPGERARSTLQKEVHAAKSLAIIVGLFALCWLPLHIINCFTFFCPDCSHAPLWLMYLAIVLSHTNSVVNPFIYAYRIREFRQTFRKIIRSHVLRQQEPFKAAGTSARVLAAHGSDGEQVSLRLNGHPPGVWANGSAPHP",,0.19,0.62
"A2AR-G349ΔC (domain or fragment, human, UniProt P29274 1-349, looked up, adenosine A2A receptor, human, C-terminus truncated at site G349) MPIMGSSVYITVELAIAVLAILGNVLVCWAVWLNSNLQNVTNYFVVSLAAADIAVGVLAIPFAITISTGFCAACHGCLFIACFVLVLTQSSIFSLLAIAIDRYIAIRIPLRYNGLVTGTRAKGIIAICWVLSFAIGLTPMLGWNNCGQPKEGKNHSQGCGEGQVACLFEDVVPMNYMVYFNFFACVLVPLLLMLGVYLRIFLAARRQLKQMESQPLPGERARSTLQKEVHAAKSLAIIVGLFALCWLPLHIINCFTFFCPDCSHAPLWLMYLAIVLSHTNSVVNPFIYAYRIREFRQTFRKIIRSHVLRQQEPFKAAGTSARVLAAHGSDGEQVSLRLNGHPPGVWANG",binds,,

# Target: P29274
# Assay: as above
row,Protein,HMW oligomer level (relative to monomer)
1,A2AR-N359ΔC (protein) MPIMGSSVYITVELAIAVLAILGNVLVCWAVWLNSNLQNVTNYFVVSLAAADIAVGVLAIPFAITISTGFCAACHGCLFIACFVLVLTQSSIFSLLAIAIDRYIAIRIPLRYNGLVTGTRAKGIIAICWVLSFAIGLTPMLGWNNCGQPKEGKNHSQGCGEGQVACLFEDVVPMNYMVYFNFFACVLVPLLLMLGVYLRIFLAARRQLKQMESQPLPGERARSTLQKEVHAAKSLAIIVGLFALCWLPLHIINCFTFFCPDCSHAPLWLMYLAIVLSHTNSVVNPFIYAYRIREFRQTFRKIIRSHVLRQQEPFKAAGTSARVLAAHGSDGEQVSLRLNGHPPGVWANGSAPHPERRPN,ctrl: 0.68
2,"A2AR-N359ΔC with the ERR:AAA mutations (domain or fragment, human, UniProt P29274 1-359, looked up, adenosine A2A receptor, human, C-terminus truncated at site N359, residues 355ERR357 substituted by 355AAA357; also called A2AR-ERR:AAA variant of A2AR-N359ΔC; N359ΔC ERR:AAA) MPIMGSSVYITVELAIAVLAILGNVLVCWAVWLNSNLQNVTNYFVVSLAAADIAVGVLAIPFAITISTGFCAACHGCLFIACFVLVLTQSSIFSLLAIAIDRYIAIRIPLRYNGLVTGTRAKGIIAICWVLSFAIGLTPMLGWNNCGQPKEGKNHSQGCGEGQVACLFEDVVPMNYMVYFNFFACVLVPLLLMLGVYLRIFLAARRQLKQMESQPLPGERARSTLQKEVHAAKSLAIIVGLFALCWLPLHIINCFTFFCPDCSHAPLWLMYLAIVLSHTNSVVNPFIYAYRIREFRQTFRKIIRSHVLRQQEPFKAAGTSARVLAAHGSDGEQVSLRLNGHPPGVWANGSAPHPAAAPN",ERR:AAA: 0.38
3,"A2AR-FL-ERR:AAA (receptor, human, UniProt P29274 1-412, looked up, adenosine A2A receptor, human, full length, residues 355ERR357 substituted by 355AAA357; also called A2AR-ERR:AAA variant of A2AR-FL-WT) MPIMGSSVYITVELAIAVLAILGNVLVCWAVWLNSNLQNVTNYFVVSLAAADIAVGVLAIPFAITISTGFCAACHGCLFIACFVLVLTQSSIFSLLAIAIDRYIAIRIPLRYNGLVTGTRAKGIIAICWVLSFAIGLTPMLGWNNCGQPKEGKNHSQGCGEGQVACLFEDVVPMNYMVYFNFFACVLVPLLLMLGVYLRIFLAARRQLKQMESQPLPGERARSTLQKEVHAAKSLAIIVGLFALCWLPLHIINCFTFFCPDCSHAPLWLMYLAIVLSHTNSVVNPFIYAYRIREFRQTFRKIIRSHVLRQQEPFKAAGTSARVLAAHGSDGEQVSLRLNGHPPGVWANGSAPHPAAAPNGYALGLVSGGSAQESQGNTGLPDVELLSHELKGVCPEPPGLDDPLAQDGAGVS",ERR:AAA: 0.66

# — article PMC8328514, “Homo-oligomerization of the human adenosine A2A receptor is driven by the intrinsically disordered C-terminus” (eLife, 2021)
